According to the supplement of paper PMC10567573:

B1: FAM98B (parent)
chain: QLDKNSEVYQEVQAMFDTLGIPKS
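Also: lentivirally expressed fusions sorted by FACS into six bins by GFP to DsRed ratio, PSI derived from sequencing read proportions per bin multiplied by bin number.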

Variants of: B1
Experiment: protein stability index of a GFP-peptide fusion (GPS, HEK-293T) (PSI 1-6); higher = more stable
Conditions: c terminus: a fixed tail appended
In the case of I21P, the protein stability index is reported as 3.6. In the case of I21A, the protein stability index is reported as 3.72. I21T showed a protein stability index of 3.69. I21W gave a protein stability index of 3.6. K4N showed a protein stability index of 3.67. K4P showed a protein stability index of 3. K4E showed a protein stability index of 3.62. In the case of K4I, the protein stability index is reported as 2.56. K4S gave a protein stability index of 3.52. For K4G, the protein stability index was 3.5. Work on V8F yielded a protein stability index of 2.55. For V8T, the protein stability index was 3.81. For V8N, the protein stability index was 3.94. In the case of V8M, the protein stability index is reported as 3.2. For V8R, the protein stability index was 3.36. With E11R the protein stability index was 3.38. Work on E11G yielded a protein stability index of 2.78. E11W gave a protein stability index of 1.27. Work on E11S yielded a protein stability index of 2.62. Q10Y gave a protein stability index of 2.49. With Q10C the protein stability index was 2.63. For Q10S, the protein stability index was 3.58. Variant Q10G has a protein stability index of 3.01. Q10V showed a protein stability index of 2.08. For Q10A, the protein stability index was 3.01. Work on D3V yielded a protein stability index of 2.67. With D3L the protein stability index was 2.06. For D3I, the protein stability index was 1.95. In the case of S24D, the protein stability index is reported as 4.28. For S24W, the protein stability index was 2.99. For S24Q, the protein stability index was 3.25. In the case of S24C, the protein stability index is reported as 2.44. Work on T18Q yielded a protein stability index of 3.24. For T18L, the protein stability index was 2.97. With T18I the protein stability index was 2.79. Work on T18S yielded a protein stability index of 2.85. For T18P, the protein stability index was 3.38. Work on T18A yielded a protein stability index of 3.34. Variant T18C has a protein stability index of 2.59. T18W showed a protein stability index of 2.02. For L19T, the protein stability index was 3.59. With L19M the protein stability index was 3.15. In the case of L19K, the protein stability index is reported as 3.32. For L19C, the protein stability index was 3.69. D17C showed a protein stability index of 2.64. D17G showed a protein stability index of 3.08. In the case of D17K, the protein stability index is reported as 2.77. Variant D17R has a protein stability index of 2.71. Work on D17A yielded a protein stability index of 2.92. Work on D17V yielded a protein stability index of 2.38. For D17F, the protein stability index was 3.27. Variant D17P has a protein stability index of 3.49. With N5T the protein stability index was 4.11. For E7H, the protein stability index was 2.51. E7D showed a protein stability index of 3.86. Work on E7W yielded a protein stability index of 2.13. Work on E7P yielded a protein stability index of 2.58. Variant E7K has a protein stability index of 3.06. In the case of V12Q, the protein stability index is reported as 3.56. In the case of V12G, the protein stability index is reported as 4. With V12E the protein stability index was 3.5. For V12F, the protein stability index was 3.48. Variant Q13I has a protein stability index of 3.19. Work on Q13K yielded a protein stability index of 2.55. Work on Q13P yielded a protein stability index of 3.27. For Q1W, the protein stability index was 2.88. Work on Q1D yielded a protein stability index of 4.18. Q1H gave a protein stability index of 3.64. With P22G the protein stability index was 2.53. With P22Y the protein stability index was 2.54. With P22Q the protein stability index was 2.62. With P22E the protein stability index was 4.15. In the case of S6A, the protein stability index is reported as 3.6. S6W gave a protein stability index of 2.32. S6Q showed a protein stability index of 3.14. With S6E the protein stability index was 4.21. Work on S6M yielded a protein stability index of 3.23. Variant S6C has a protein stability index of 2.77. In the case of M15L, the protein stability index is reported as 2.94. With M15T the protein stability index was 3.25. Work on M15Y yielded a protein stability index of 2.55. Variant M15C has a protein stability index of 2.73. M15A gave a protein stability index of 2.88. K23W showed a protein stability index of 2.3. For K23T, the protein stability index was 3.24. With K23N the protein stability index was 3.54. With K23D the protein stability index was 3.82. Work on K23Y yielded a protein stability index of 2.71. With K23F the protein stability index was 2.59. Work on G20H yielded a protein stability index of 2.55. Variant G20Y has a protein stability index of 3.02. Variant G20Q has a protein stability index of 2.98. G20L gave a protein stability index of 3.2. G20K showed a protein stability index of 3.62. G20S showed a protein stability index of 3.75. With G20M the protein stability index was 2.5. F16W showed a protein stability index of 2.1. F16T gave a protein stability index of 3.78. F16P gave a protein stability index of 4.42. For F16A, the protein stability index was 3.82. For F16N, the protein stability index was 3.77. For F16R, the protein stability index was 2.92. With A14F the protein stability index was 2.64. A14C gave a protein stability index of 3.04. Work on L2H yielded a protein stability index of 4.13. L2F showed a protein stability index of 3.51. L2Y gave a protein stability index of 4.08. In the case of L2D, the protein stability index is reported as 4.67. L2Q gave a protein stability index of 4.23. With Y9D the protein stability index was 4.2. In the case of Y9Q, the protein stability index is reported as 3.98. Y9P gave a protein stability index of 3.57. Work on Y9W yielded a protein stability index of 3.31. Work on Y9F yielded a protein stability index of 2.72.
